The source of these data is a protein production outcome set (Wang et al. 2014).

The series can be described thus: label from the status in PepcDB records.
On to “GAPFRSTVTLQPTSGSLVNLTEWPPFVITLDDVELVHFERVQFHLRNFDMIFVFKEYNKKVAMVNAIPMNMLDHVKEWLNSCDIRYSEGVQSLNWQKIMKTITDDP”, for which the protein production entry is recorded as “failed”.

In the case of “MPTATDARGHTVTLDHRPRRILSLVPSQTELLAHLDLADEVVGITRFCERPEHWRSEKAIVGGTKQVDFDTVRDLDPDLVLANHEENTAEDVETLDEIAPVFVTEVKTVEDALGMIRTVGTLTETSDQTSTLVGKIISRFESLPDFTSLRAAYLIWRDPYMTIGNDTFIHDVMHWGGLENAYGDQTRYPDVTIADLAEQDLDVVLCSSEPFPFHEKDAFTADLREALPDTSVEIVDGQPFSWYGPRLLDTPSYLKTLRERLPTPAPRR”, the protein production result is “failed”.

Turning to “MDGVYVLSVKEDVPAAGILHAGDLITEIDGQSFKSSQEFIDYIHSKKVGDTVKIKYKHGNKNEEASIKLTAIDKKGTPGIGITLVDDLEHHHHHH”, the protein production entry is listed as “failed”.

Consider “MAGNAPLQQVQKKWAECQYSTPDGDEKEQCFHRAIAKTSIYLDREPGNPELTVWLAINKASLAGAQGGFGALSLAKEAKSLLEGVIATSPQTLDGSAYTSLGSLYYKVPGWPIGFGDDDKAEEMLKKALEINPKGIDPNYFYGDFLAEEGRDKEAKVYLTRAMQASPRPDRPLADKGRKLEIEATLGRLKLEHHHHHH”, for which the protein production entry is given as “not failed”.

In the case of “LRETEARLQRLADNLPGMLYEFCLKPDGTMTFPYVSSGCLELIECSPQELQDDASLTFASTYPEDIIGLQEAIANSAKTLQNFEHEWRIITSSGQLKWVKGASRPERKPGGEITWYGYLLDVSEQQAALRERKQADQQ”, the protein production result is given as “not failed”.

As to “MKKTTLVLSALALSIGFAMGPVSSVVAAETAASSSQQLPSLAPMLEKVMPSVVSINVEGSAPVSSAGARGMPPQFQQFFGDNSPFCQDGSPFQGSPMCQGDLGGLGQGMPSKREFRSLGSGVIIDAGKGYVVTNNHVVDNANKISVKLSDGRSFDAKVIGKDPRTDIALLQLKDAKNLTAIKIANSDQLRVGDYTVAIGNPYGLGETVTSGIVSALGRSGLNVENYENFIQTDAAINRGNSGGALINLNGELIGINTAILAPDGGNIGIGFAIPSNMVKNLTSQMVEFGQVKRGELGIMGTELNSELAKAMKVDAQKGAFISQVVPKSAAAKAGIKAGDIIVSMNGKAINSFAGFRAEIGTLPVGSKMTLGLLRDGKPINVDVVLEQSSHSQVESGNLYTGIEGAELSNSDVSGKKGVKVDSVKPGTAAARIGLKKGDIIMGINQQPVQNLGELRKILDAKPPVLALNIQRGDTSLYLLMQ”, the protein production result was “failed”.

“MDVSFEFEHYQVRLIKSSDAVTIANYFMRNRHHLAPWEPKRSHAFFTPEGWKQRLLQLVELHKHNLAFYFVVVDKNEHKIIGTVSYSNITRFPFHAGHVGYSLDSEYQGKGIMRRAVNVTIDWMFKAQNLHRIMAAYIPRNEKSAKVLAALGFVKEGEAKKYLYINGAWEDHILTSKINDDWKP”: the protein production entry is recorded as “not failed”.

Turning to “MQIYLSTLTELDYDKSLNSIEESFDDNPETSWQARAKVKHLRKSPCYNFELEVIAKNENNDVVGHVLLIEVEINSDDKTYYGLAIASLSVHPELRGQKLGRGLVQAVEERAKAQEYSTVVVDHCFDYFEKLGYQNAAEHDIKLESGDAPLLVKYLWDNLTDAPHGIVKFPEHFY”, the protein production result is given as “failed”.

For “MRKARGIKLIAVFLVAAVVNVVFGFCVLAKAQILKKPAENSYVFDYANLIDSSDEEEMRALAKEIEDKSKAEIVVVTVETLGSYTIEEYANELFRSWEIGDKELNNGVLILVNKENLLLGKKGRIRIEVGYGLEGAITDGKAGRTLDEYAIPAFERNEYSKGIRDTFLAVASEVANEYGLKIDGLSGYGASEDVNENEVTSDGNAENVVDVPFGLGIGAGLIVGFGLFFFIIFLMVIVILYNQPYAGKKYEWTWKNGKWEKKVYVYRYDDLWKNNRSFFDDSDDSDSFGSGGGFGGFGGGSSGGGGASR”, the protein production entry is listed as “failed”.

On to “DNDAEALLWSELRDRRLNGFKFVRQVAVGPYFADFACRDERLVVEVDGSQHQIGSGDARRDKFMVMNGWSVLRFWNTDIFNDRAAVLETIVAVLEKRLVREVRSAD”, for which the protein production entry is “failed”.

As for “MWTVLIINLLIAIVLTYFGLKERNENFSWFTASGAFIVFGLILLISTIPVFNDFNESSLLMFIGGILSILGIITLIIGLVTRAVKIVSLRDVAIAMEIAAVCVIYLIHNLDLSFINLFVPELSVIIGFLLFVFSRKKN”, the protein production result is “failed”.

On to “MTALFFENFAPGHFGRYGPRRVTREEIIAFASEYDPQPMHLDDHAANASMLKGMSGSGWHLSSLMMRMMYDGFIKDTASLGSPGVDEMRWMSPLRPGDDLLLDVEVIEARVSKSRPETGIVTFKCYVRNGHGQMLSEMVSPIIVKRRDAD”, for which the protein production result is given as “failed”.

For the sequence “MEDSSLLSPISLLTIVIFLFILNLMMIIQDFSSSFPFRFHLFFSNAYILFTSIRNNKQNTELPIIKKVVVPNRADIKTSVEEVKAIIDDSEALYECLIEEGEEYLLEKNEMMGKEIVKEAFRLFDENQDGFIDENELKHVLSLLGYDECTKMECRKMVKVYDENRDGKIDFYEFVKLIEKSFS”, the protein production result is listed as “failed”.

On to “MTNITASIVLYNNPIDQIRQCIESMQADTRVHVLLVDNSEKKGGYTGLAADNVEILDAPGNVGFGRGHNLVLGRLAALRSEVHLVVNPDIVVSAGCVQAVADVLRQRKDVTLVGPRVVSPDGALYRSCKLLPTPWNLFARRFAPRQLYAAADARYELEAFGYDRELRLHNLSGAFLAFRSEAFTALGGFDPRYFMYLEDVDICRRAAGLGAVIFLPQAEVVHEHGKGSYRSWRLLREHMRSAILYFNRFGWFVDAERRLLNRETLARVNDMRSVVLEHHHHHH”, for which the protein production result is “failed”.

Turning to “MDIEERINLVLKKPTEEVLTVENLRHLFEIGAPLQHYIGFEISGYIHLGTGLMAGAKIADFQKAGIKTRVFLADWHSWINDKLGGDLEVIQEVALKYFKVGMEKSIEVMGGDPKKVEFVLASEILEKGDYWQTVIDISKNVTLSRVMRSITIMGRQMGEAIDFAKLIYPMMQVADIFYQGVTIAHAGMDQRKAHVIAIEVAQKLRYHPIVHEGEKLKPVAVHHHLLLGLQEPPKWPIESEEEFKEIKAQMKMSKSKPYSAVFIHDSPEEIRQKLRKAFCPAREVRYNPVLDWVEYIIFREEPTEFTVHRPAKFGGDVTYTTFEELKRDFAEGKLHPLDLKNAVAEYLINLLEPIRRYFEKHPEPLELMRSVKITR”, the protein production entry is “not failed”.

As for “RKTEKVVNNGIPWFDDRGEIVNAHGACIVEENGRYYLFGEYKSDKSNAFPGFSCYSSDDLVNWKFERVVLPMQSSGILGPDRVGERVKVMKCPSTGEYVMYMHADDMNYKDPHIGYATCSTIAGEYKLHGPLLYEGKPIRRWDMGTYQDTDGTGYLLLHGGIVYRLSKDYRTAEEKVVSGVGGSHGESPAMFKKDGTYFFLFSNLTSWEKNDNFYFTAPSVKGPWTRQGLFAPEGSLTYNSQTTFVFPLKCGEDTIPMFMGDRWSYPHQASAATYVWMPMQVDGTKLSIPEYWPSWDVDKLKPVNPLRKGKTVDLKKITFSKEADWKVEEGRISSNVKGSTLSIPFTGSCVAVMGETNCHSGYARMNILDKKGEKIYSSLVDFYSKANDHATRFKTPQLAEGEYTLVIEVTGISPTWTDKTKRIYGSDDCFVTITDIVKL”, the protein production entry is “not failed”.

With “SGLAQPQIAAVVAAPKKPEPAKAPKAPKSKSEKENKPVVAARKANAPVAKNASPVKGGKGPAGGDVGRPKNPTANGANNQGRFNNNQRYGNKESNGEFGNELPQRQFNNRDNRGPPRVRTGEKFG”, the protein production result is listed as “failed”.

With “MKKKKAHAAGAGPKLSVTNPPRTFFEDTLALFNSRRFDLLDQKINEAVNKWPNHAVVWKAIGVIMLMEGRFKEAIEPLTTAANLAQGDAQLHHNLGVAYLRLEQYEKAVPWLQRATSLKPDYAQAFANLGIAQAEIGLLQAAESNYRTALKINKDFPEALNNLGNVLNDQKRYGEAEECFRRALVLKPDFAEALNNLGTSLKGLNRLEEAETTYRKSLSLMPDYTRAHIGLGHTLFKLRQPDKAAASFRRAIELSPYELEAHDGLSMTLGDTVPLWHLPMMNDKPRNDAYFNALQAAVTPETRVLEIGTGSGLLSMMSARLGARHVTTCEVVTAIAETAASIVKDNGFADQVTVIPKLSTTLEVGVDLEERADLLVSEILSSEFLGEGVLSSIEDAKRRLLKPGARIIPARGSVRIALFGGRDIEMNVRVDEVYGFDLSRFNDIVPPKQYVGRNDLNIELLSDGIGAIHFDFMGTDHFPTSRSYGIDVPITRAGRCCGVIQWIRLEMDDTFVFENHPAERNVASGWQHCVYLFKTPVDVQPGQVAQIIASHDIRTCWFFLKKIVTP”, the protein production entry was “failed”.
